In article PMC3325269, “Non-Agonistic Bivalent Antibodies That Promote c-MET Degradation and Inhibit Tumor Growth and Others Specific for Tumor Related c-MET” (PLoS ONE, 2012):

What was measured:
[1] = biological target: T1, c-MET extracellular domain (Homo sapiens, UniProt P08581); test: SPR; BIAcore; c-MET extracellular domain immobilized, different concentrations of purified LMH antibodies (intact IgG); conditions: both partners purified
T1 construct: c-MET extracellular domain; also called immobilized c-MET extracellular domain
T1 sequence (P08581 25-932): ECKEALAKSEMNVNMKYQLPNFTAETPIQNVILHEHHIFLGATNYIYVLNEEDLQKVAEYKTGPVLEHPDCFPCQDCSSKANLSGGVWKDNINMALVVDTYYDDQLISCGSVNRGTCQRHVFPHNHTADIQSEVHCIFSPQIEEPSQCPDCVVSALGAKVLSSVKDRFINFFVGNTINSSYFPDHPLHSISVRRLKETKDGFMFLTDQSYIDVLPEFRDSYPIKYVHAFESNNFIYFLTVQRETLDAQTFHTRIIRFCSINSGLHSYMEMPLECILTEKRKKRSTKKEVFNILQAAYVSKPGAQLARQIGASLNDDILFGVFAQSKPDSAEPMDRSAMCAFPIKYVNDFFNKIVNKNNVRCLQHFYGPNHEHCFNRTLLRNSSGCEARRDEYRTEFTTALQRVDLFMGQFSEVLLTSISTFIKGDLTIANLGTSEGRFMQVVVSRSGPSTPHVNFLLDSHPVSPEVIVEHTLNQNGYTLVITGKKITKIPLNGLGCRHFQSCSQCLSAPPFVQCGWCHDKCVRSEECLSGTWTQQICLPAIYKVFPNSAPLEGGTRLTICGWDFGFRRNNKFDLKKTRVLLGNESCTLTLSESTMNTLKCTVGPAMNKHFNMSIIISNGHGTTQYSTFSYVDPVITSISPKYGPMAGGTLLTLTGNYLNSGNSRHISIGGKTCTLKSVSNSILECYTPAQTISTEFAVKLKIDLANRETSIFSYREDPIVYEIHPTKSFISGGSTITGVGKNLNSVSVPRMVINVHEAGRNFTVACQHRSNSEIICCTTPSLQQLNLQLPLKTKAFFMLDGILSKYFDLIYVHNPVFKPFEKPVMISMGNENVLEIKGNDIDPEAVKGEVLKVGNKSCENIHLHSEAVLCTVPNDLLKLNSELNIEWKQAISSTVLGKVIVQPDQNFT

[2] = biological target: T2, c-MET on the surface of A549 lung cancer cells (Homo sapiens (A549), UniProt P08581); test: flow cytometry on cells; A549 cells, 10 µg/ml of each LMH antibody in 1% HSA/PBS, 1 h at 4°C; anti-mouse IgG-PE secondary; conditions: one partner purified
T2 construct: c-MET, the receptor for hepatocyte growth factor/scatter factor, as expressed on cells; also called surface c-MET; c-MET receptor; source: endogenous, on A549 cells (U87MG cells in one down-regulation assay)
T2 sequence (P08581 25-1390): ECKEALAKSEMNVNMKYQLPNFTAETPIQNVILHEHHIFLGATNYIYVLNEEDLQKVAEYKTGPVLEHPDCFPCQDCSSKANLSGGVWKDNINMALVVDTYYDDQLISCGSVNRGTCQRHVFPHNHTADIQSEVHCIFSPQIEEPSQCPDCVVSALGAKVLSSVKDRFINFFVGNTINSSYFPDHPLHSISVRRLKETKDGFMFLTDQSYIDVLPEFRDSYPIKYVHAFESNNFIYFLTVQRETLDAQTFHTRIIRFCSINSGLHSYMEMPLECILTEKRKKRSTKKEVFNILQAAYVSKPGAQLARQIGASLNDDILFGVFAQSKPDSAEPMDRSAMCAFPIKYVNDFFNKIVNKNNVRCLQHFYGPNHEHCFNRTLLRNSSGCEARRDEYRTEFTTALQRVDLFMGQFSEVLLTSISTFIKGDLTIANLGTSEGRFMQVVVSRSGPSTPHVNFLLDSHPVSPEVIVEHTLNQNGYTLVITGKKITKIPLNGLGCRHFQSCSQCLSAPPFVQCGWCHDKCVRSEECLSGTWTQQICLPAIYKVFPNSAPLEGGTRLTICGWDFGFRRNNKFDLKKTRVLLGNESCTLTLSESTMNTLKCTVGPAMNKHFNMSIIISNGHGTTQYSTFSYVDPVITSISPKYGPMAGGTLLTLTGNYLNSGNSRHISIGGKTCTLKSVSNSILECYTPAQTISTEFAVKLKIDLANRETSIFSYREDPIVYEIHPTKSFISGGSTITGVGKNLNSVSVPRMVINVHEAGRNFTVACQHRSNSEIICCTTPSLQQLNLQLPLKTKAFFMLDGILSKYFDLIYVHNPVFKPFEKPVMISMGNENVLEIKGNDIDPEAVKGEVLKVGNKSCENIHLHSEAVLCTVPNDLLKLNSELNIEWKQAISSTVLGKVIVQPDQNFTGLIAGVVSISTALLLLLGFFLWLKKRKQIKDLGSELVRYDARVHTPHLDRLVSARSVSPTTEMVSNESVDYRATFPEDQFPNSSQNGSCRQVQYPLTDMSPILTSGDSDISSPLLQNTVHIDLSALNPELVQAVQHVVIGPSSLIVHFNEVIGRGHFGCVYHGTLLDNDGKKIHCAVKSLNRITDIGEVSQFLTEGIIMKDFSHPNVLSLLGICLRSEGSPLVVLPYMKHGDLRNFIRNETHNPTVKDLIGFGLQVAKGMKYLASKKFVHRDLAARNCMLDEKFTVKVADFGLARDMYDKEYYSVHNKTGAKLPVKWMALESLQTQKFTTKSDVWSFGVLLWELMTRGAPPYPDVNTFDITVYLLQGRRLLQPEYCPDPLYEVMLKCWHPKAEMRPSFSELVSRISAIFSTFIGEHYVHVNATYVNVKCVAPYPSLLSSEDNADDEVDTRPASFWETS

[3] = biological target: T3, mature c-MET (disulphide-linked α/β heterodimer) (Homo sapiens (A549), UniProt P08581); test: co-IP; immunoprecipitation of endogenous c-MET from A549 lysates (Triton X-100 lysis buffer) with the LMH antibody; membranes blotted with mAb 25H2; conditions: one partner purified
T3 construct: c-MET α-chain, extracellular 50 kDa product of furin cleavage of the precursor; c-MET β-chain, extracellular/intracellular 145 kDa product of furin cleavage of the precursor, contains the TK domain; Detected in the immunoprecipitates by the 145 kDa β-chain band (mAb 25H2); also called mature receptor; source: endogenous, A549 lysate

B1: LMH 87 (antibody, V domains shown)
VH: QVQLQQSGPELVKSGASVKMSCKASGNTLKDDHVHWVKQRPGQGLEWIGWIYPGGGRTRYNEKFKGKTTLTADKPSSTVNMLLSSLTSEDSAIYFCTNLVFDVWGAGTTVTVSS
VL: DIVMTQAAPSVPVTPGESVSISCRSSKSLLHSNGNTYLYWFLQRPGQSPQVLIYRMSNLASGVPDRFSGSGSGTAFTLRIRRVEAEDVGVYYCMQNLEYPFTFGGGTKLEIK
notes: VH domain; heavy chain constant region of a mouse IgG; VL (Vk) domain; light chain constant region of a mouse antibody (the methods call the variable segment Vk); Intact bivalent mouse monoclonal antibody; also called LMH 87 antibody; mAb LMH 87; source: clonal supernatants in the screening ELISA; copies: 2 + 2
- Kd [1]: 2.6 nM

B2: LMH 85 (antibody, V domains shown)
VH: QVQLQQSGAELAKPGASVKMSCKASGYTFIIYWIHWIKQRPGQGLEWIGYINPSNDYTEYNQKFKDKATLTADKSSNTAFMQLSSLTSEDSAVYYCARDSYDYDDGAYAMDYWGQGTSVTVSS
VL: QIVLSQSPAILSASPGEKVTMTCRASSGVNYMHWYQQKPGSSPKPWIYATSNLASGVPARFSGSGSGTSYSLTISRVEAEDAATYYCQQWISHPFTFGSGTKLEIK
notes: VH domain; heavy chain constant region of a mouse IgG; VL domain; light chain constant region of a mouse antibody; Intact bivalent mouse monoclonal antibody, agonist of c-MET; also called LMH 85 antibody; mAb LMH 85; source: clonal supernatants in the screening ELISA; copies: 2 + 2
- binding result [2]: binds
- binding result [3]: binds
